According to article doi:10.1101/2025.01.24.634737:

Experiments:
[1] = biological target: microtubules grown from purified bovine brain tubulin (bovine) (UniProt Q6B856); assay: optical trap rupture force assay; kinetochores purified in the presence of benzonase, on anti-penta-His beads (via Dsn1-6His-3M3DK), attached to the growing tips of coverslip-anchored microtubules; force ramp 0.25 pN/s until detachment; BRB80, 1 mM GTP, 23 °C
[2] = biological target: microtubules grown from purified bovine brain tubulin (bovine) (UniProt Q6B856); assay: optical trap rupture force assay; untreated purified kinetochores on anti-penta-His beads (via Dsn1-6His-3M3DK), attached to the growing tips of coverslip-anchored microtubules; force ramp 0.25 pN/s until detachment; BRB80, 1 mM GTP, 23 °C

Chain of UniProt Q6B856 (Q6B856 whole entry, looked up): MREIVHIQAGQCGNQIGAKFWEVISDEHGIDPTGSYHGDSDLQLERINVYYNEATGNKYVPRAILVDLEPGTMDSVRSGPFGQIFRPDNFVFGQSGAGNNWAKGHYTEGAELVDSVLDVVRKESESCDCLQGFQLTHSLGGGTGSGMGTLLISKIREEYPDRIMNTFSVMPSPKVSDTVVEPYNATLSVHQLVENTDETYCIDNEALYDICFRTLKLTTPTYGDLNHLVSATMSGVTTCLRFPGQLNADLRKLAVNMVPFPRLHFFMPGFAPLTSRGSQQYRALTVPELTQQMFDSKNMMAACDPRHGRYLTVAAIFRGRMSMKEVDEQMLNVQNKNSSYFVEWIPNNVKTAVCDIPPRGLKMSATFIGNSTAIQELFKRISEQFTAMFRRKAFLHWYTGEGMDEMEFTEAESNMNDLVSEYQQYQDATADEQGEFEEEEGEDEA

| Substance | median rupture force [1] [pN] | median rupture force [2] |
| --- | --- | --- |
| native K. marxianus kinetochore particles purified via Dsn1-6His-3M3DK (from UniProt A0ABX6F0Z3 1-547) (complex) | 6.4 | 7.5 pN |
| native S. cerevisiae kinetochore particles purified via Dsn1-6xHis-3xM3DK (from UniProt P40568 1-576) (complex) | – | 7.2 |
